Laboratory results reported in patent US9044514B2, “Lipid-peptide-polymer conjugates and nanoparticles thereof” (priority 2010, dated 2015).
Where no end group is shown, it is not given here.

Columns and labels:
Type in all cases: physicochemical
[1] = Particle size of self-assembled nanoparticles (TEM); conditions: for Particle Size: particles self-assembled from the conjugate, Table 1
Procedure: Lyophilized peptide-polymer conjugates were dissolved in phosphate buffer (pH=8) at a concentration of 10 mg/ml (˜1.5 mM). Upon sonication for 30 s, solutions were diluted to 1 mg/ml (0.15 mM) or 0.1 mg/ml in phosphate buffer (pH=8). 5 μl of the diluted peptide solution were applied to a discharged holey carbon-coated copper grid (Ted Pella Cu 400 mesh 01824) for 4 minutes before absorbing off excess solution using filter paper (Whatman filter paper 1). The sample on the grid was negatively stained with a 5 μl 2% (w/v) phosphotungstic acid (adjusted to pH=3.3 with 1 M NaOH) for 2 minutes. Excess stain solution was wicked off. After complete drying, grids were examined by TEM at 120 kV (Philips/FEI Tecnai 12).
Lyophilized peptide powder was dissolved at 1 mg/ml in 25 mM phosphate buffer at pH 7.4. 5 μl of peptide solution was dropped on a discharged holey carbon coated grid (Ted Pella 01824). After removing excess peptide solution, 5 μl of phosphotungstic acid (2 wt %, pH=3.3) solution was then applied for 2 minutes. Samples were dried in air and examined by a FEI Tecnai 12 transmission electron microscope at 120 kV.

[2] = Differential scanning calorimetry (DSC) of micelles; conditions: heating from 5° C. to 85° C.; solutions incubated at 20° C. for 16 hrs; FIG. 21A
Procedure: DSC was performed on a VP-MicroCal calorimeter (GE). ˜600 μl of sample and buffer were loaded into two parallel stainless steel cells that were sealed tightly under the pressure of ˜27 psi to prevent water evaporation during the heating cycle. The temperature was increased from 5° to 85° C. at a rate of 1° C./min, with a 15 min equilibration time at 5° C. DSC thermograms were obtained after concentration normalization and baseline correction using the Origin software provided by the MicroCal.

[3] = Circular dichroism (CD), peptide helicity; conditions: CD spectra, same conditions, FIG. 31
Procedure: Temperature dependent CD measurements were made on a Jasco J810 spectropolarimeter. CD spectra were collected from 260 to 190 nm at 0.2 nm intervals, a rate of a 100 nm/min, a response time of 4 s, and a bandwidth of 1 nm. Temperature melt curves were measured using ˜200 μM solutions. The ellipticity was monitored at 222 nm as the temperature increased from 5° to 95° C. in 5° C. increments at a rate of 1° C./min, with a 1 min equilibration time at each temperature before the measurement was taken. One hundred percent helicity was estimated using the formula [θ]222=40,000[…][1−(2.5/n)].

Substance	particle/micelle diameter ([1]; TEM for conjugate 15) [nm]	Particle Size [1]	DSC melting temperature / endothermic peak centre [2] [°C]	helical content [3]
Conjugate 8: dC16 lipid, heme-binding 4-helix peptide BB (SEQ ID NO: 2), PEG2K (GGGEIWKLHEEFLCKFEELLKLHEERLKKM; also: dC16 lipid, place not given here, PEG2K, place not given here)	~12	10-15 nm		
Conjugate 14: dC16 lipid, random coil control peptide SR (SEQ ID NO: 4), PEG2K (EGKAGEKAGAALKCGVQELEKGAEAGEGGW; also: dC16 lipid, place not given here, PEG2K, place not given here)		10-15 nm	42	less than 5%
